Data as given in PMC8998314, “MYB2 Is Important for Tapetal PCD and Pollen Development by Directly Activating Protease Expression in Arabidopsis”.

Target: T1, HIS-MYB2 (Arabidopsis thaliana, UniProt Q39028 1-273)
T1 sequence: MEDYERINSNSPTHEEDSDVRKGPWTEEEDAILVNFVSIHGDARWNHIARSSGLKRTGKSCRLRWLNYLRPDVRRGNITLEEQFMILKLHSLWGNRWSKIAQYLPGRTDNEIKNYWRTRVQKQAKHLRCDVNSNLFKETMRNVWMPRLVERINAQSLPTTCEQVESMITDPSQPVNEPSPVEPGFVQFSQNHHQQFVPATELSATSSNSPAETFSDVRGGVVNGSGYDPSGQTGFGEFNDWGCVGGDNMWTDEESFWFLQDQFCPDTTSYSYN
Assay: EMSA; EMSA binding buffer (Beyotime Chemiluminescent EMSA kit, composition and pH not stated), 30 min at 25 °C
Conditions: protein: recombinant; tags: His (pET-30a); label: biotin

B1: CEP1 short probe with TAACTG (dsDNA)
DNA 1: TTAGACAACAGTTATTGTAATG
DNA 2: CATTACAATAACTGTTGTCTAA
Q: Does B1 bind?
A: binds

B2: CEP1 short probe(s) with AAACCA (dsDNA)
DNA 1: GCTCCTGAAAACCATAATCAGA
DNA 2: TCTGATTATGGTTTTCAGGAGC
Q: Does B2 bind?
A: binds
